# From paper PMC7605794
# T1: YRLFRK peptide (spike RBD) (SARS-CoV-2, UniProt P0DTC2)
# T1 chain: YRLFRK
# T2: HRFYRLAN peptide (RNA dependent RNA polymerase) (SARS-CoV-2, UniProt P0DTD1)
# T2 chain: HRFYRLAN
# T3: NRKRISN peptide (spike RBD) (SARS-CoV-2, UniProt P0DTC2)
# T3 chain: NRKRISN
# Legend:
# Assay in all cases: ITC
# [1] = biological target: T1, YRLFRK peptide (spike RBD)
# [2] = biological target: T2, HRFYRLAN peptide (RNA dependent RNA …)
# [3] = biological target: T3, NRKRISN peptide (spike RBD)
binder,measurement,setting,value
GGTTGGTGTGGTTGG (structured_DNA) [BC 007],Kd,[1],86.7 ± 1.2 µM
same,Kd,[2],54.7 ± 0.6 µM
same,binding result,[3],no binding
